This series can be described thus: MHET released, HPLC; higher = more MHET released; extreme values may be limits of the assay. Conditions: 24 h. As for the experimental part:
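Purified PET hydrolases, 2.5 ug enzyme on 3.5 mg amorphous PET film (aFilm) or crystalline PET powder (cryPow) in 0.5 mL of 50 mM buffer (NaCitrate pH 4.5/5.5, NaPhosphate 6.5/7.5, glycine 8.5/9.5) at 60 or 70 C with shaking for 24 h. Total aromatic product by UV-Vis (260/280 nm, blank-subtracted, normalised per mg enzyme) and individual TPA, MHET, BHET concentrations by UHPLC-DAD at 240 nm; duplicate reactions.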

[1] abbreviates: PET substrate: aFilm, 60 °C, pH 4.5.
[2] abbreviates: PET substrate: aFilm, 60 °C, pH 5.5.
The mark [3] stands for this setting: PET substrate: aFilm, 60 °C, pH 6.5.
The mark [4] stands for this setting: PET substrate: aFilm, 60 °C, pH 7.5.
Setting [5] is: PET substrate: aFilm, 60 °C, pH 8.5.
Setting [6] is: PET substrate: aFilm, 60 °C, pH 9.5.
The mark [7] stands for this setting: PET substrate: aFilm, 70 °C, pH 4.5.
[8] abbreviates: PET substrate: aFilm, 70 °C, pH 5.5.
Where [9] appears, read: PET substrate: aFilm, 70 °C, pH 6.5.
The mark [10] stands for this setting: PET substrate: aFilm, 70 °C, pH 7.5.
Where [11] appears, read: PET substrate: aFilm, 70 °C, pH 8.5.
[12] abbreviates: PET substrate: aFilm, 70 °C, pH 9.5.
[13] abbreviates: PET substrate: cryPow, 60 °C, pH 4.5.
The mark [14] stands for this setting: PET substrate: cryPow, 60 °C, pH 5.5.
Setting [15] is: PET substrate: cryPow, 60 °C, pH 6.5.
[16] abbreviates: PET substrate: cryPow, 60 °C, pH 7.5.
Where [17] appears, read: PET substrate: cryPow, 60 °C, pH 8.5.
Where [18] appears, read: PET substrate: cryPow, 60 °C, pH 9.5.
Where [19] appears, read: PET substrate: cryPow, 70 °C, pH 4.5.
[20] abbreviates: PET substrate: cryPow, 70 °C, pH 5.5.
Setting [21] is: PET substrate: cryPow, 70 °C, pH 6.5.
Where [22] appears, read: PET substrate: cryPow, 70 °C, pH 7.5.
The mark [23] stands for this setting: PET substrate: cryPow, 70 °C, pH 8.5.
The mark [24] stands for this setting: PET substrate: cryPow, 70 °C, pH 9.5.

± gives the standard deviation of the averaged measurements.

For the sequence “SNPYQRGPNPTRSALTADGPFSVATYTVSRLSVSGFGGGVIYYPTGTSLTFGGIAMSPGYTADASSLAWLGRRLASHGFVVLVINTNSRFDGPDSRASQLSAALNYLRTSSPSAVRARLDANRLAVAGHSMGGGGTLRIAEQNPSLKAAVPLTPWHTDKTFNTSVPVLIVGAEADTVAPVSQYAIPFYQNLPSTTPKVYVELCNASHIAPNSDNAAISVYTISWMKLWVDNDTRYRQFLCNVNDPALCDFRTNNRHCQ [LCC-A2]”, the MHET released is, setting by setting: under setting [1], 0.107 ± 0.02 mM; under setting [2], 0.735 ± 0.011 mM; under setting [3], 1.23 ± 0.15 mM; under setting [4], 6.36 ± 0.67 mM; under setting [5], 0.322 ± 0.011 mM; under setting [6], 2.64 ± 0.63 mM. Besides, the MHET released amounted to 0 mM under setting [7]; 0.429 ± 0.037 mM under setting [8]; 0.862 ± 0.087 mM under setting [9]; 8.82 ± 0.22 mM under setting [10]; 0.253 ± 0.066 mM under setting [11]; 2.25 ± 0.33 mM under setting [12]. In addition, the MHET released under setting [13] is 0.1017 ± 0.00038 mM; the MHET released under setting [14] came to 0.24 ± 0.029 mM; the MHET released under setting [15] was 0.476 ± 0.055 mM; the MHET released under setting [16] was 0.733 ± 0.1 mM; the MHET released under setting [17] is 0.261 ± 0.015 mM; the MHET released under setting [18] stood at 0.281 ± 0.12 mM. Moreover, the MHET released turned out to be 0.0080455 ± 1.1e-06 mM under setting [19]; 0.168 ± 0.024 mM under setting [20]; 0.421 ± 0.06 mM under setting [21]; 0.748 ± 0.023 mM under setting [22]; 0.293 ± 0.026 mM under setting [23]; 0.189 ± 0.018 mM under setting [24].
Take “QDNPYERGPDPTEDSIEAIRGPFSVATERVSSFASGFGGGTIYYPRETDEGTFGAVAVAPGFTASQGSMSWYGERVASHGFIVFTIDTNTRLDAPGQRGRQLLAALDYLVERSDRKVRERLDPNRLAVMGHSMGGGGSLEATVMRPSLKASIPLTPWHLDKTWGQVQVPTFIIGAELDTIAPVSTHAKPFYESLPSSLPKAYMELCGATHFAPNIPNTTIAKYVISWLKRFVDEDTRYSQFLCPNPTDRAICEYRSTCPY [Cut190*SS]”: the MHET released runs as follows: under setting [1], 0 mM; under setting [2], 0.00789 ± 0.0025 mM; under setting [3], 0.04 ± 0.013 mM; under setting [4], 0.208 ± 0.0037 mM; under setting [5], 0.0945 ± 0.017 mM; under setting [6], 0.155 ± 0.048 mM. The MHET released runs as follows: under setting [7], 0 mM; under setting [8], 0 mM; under setting [9], 0 mM; under setting [10], 0.234 ± 0.015 mM; under setting [11], 0.00747 ± 0.00044 mM; under setting [12], 0.0894 ± 0.0076 mM. For the same sequence, the MHET released reads like this: under setting [13], 0 mM; under setting [14], 0.0526 ± 0.008 mM; under setting [15], 0.1 ± 0.013 mM; under setting [16], 0.202 ± 0.016 mM; under setting [17], 0.171 ± 0.087 mM; under setting [18], 0.11 ± 0.064 mM. The MHET released by setting is: under setting [19], 0 mM; under setting [20], 0.00708 ± 0.00097 mM; under setting [21], 0.0193 ± 0.0037 mM; under setting [22], 0.0639 ± 0.0018 mM; under setting [23], 0.02402 ± 0.00011 mM; under setting [24], 0.00359 ± 0.0051 mM.
Turning to “QTNPYARGPNPTAASLEASAGPFTVRSFTVARPVGYGAGTVYYPTNAGGTVGAIAIVPGYTATQSSINWWGPRLASHGFVVITIDTNSTLDKPESRSSQQMAALRQVASLNGTSSSPIYGKVDTARGGVMGWSMGGGGSLISAANNPSLKAAAVMAPWHSSTNFSSVTVPTLIFACENDRIAPVKEYALPIYDSMSLNAKQFLEICGGSHSCACSGNSNQALIGMKGVAWMKRFMDNDTRYSQFACENPNSTAVCDFRTANCS [HotPETase]”, the MHET released under setting [1] came to 0 mM; the MHET released under setting [2] was found to be 0.282 ± 0.044 mM; the MHET released under setting [3] was 0.534 ± 0.033 mM; the MHET released under setting [4] worked out at 3.07 ± 1 mM; the MHET released under setting [5] was determined as 0.303 ± 0.0093 mM; the MHET released under setting [6] amounted to 1.8 ± 0.49 mM. Moreover, the MHET released runs as follows: under setting [7], 0 mM; under setting [8], 0 mM; under setting [9], 0.0858 ± 0.078 mM; under setting [10], 0.198 ± 0.22 mM; under setting [11], 0.121 ± 0.0029 mM; under setting [12], 0.077 ± 0.074 mM. Also, the MHET released runs as follows: under setting [13], 0 mM; under setting [14], 0.43 ± 0.018 mM; under setting [15], 0.527 ± 0.066 mM; under setting [16], 0.655 ± 0.037 mM; under setting [17], 0.319 ± 0.024 mM; under setting [18], 0.174 ± 0.029 mM. Besides, the MHET released turned out to be 0 mM under setting [19]; 0.163 ± 0.018 mM under setting [20]; 0.386 ± 0.032 mM under setting [21]; 0.249 ± 0.057 mM under setting [22]; 0.268 ± 0.017 mM under setting [23]; 0.0221 ± 0.0057 mM under setting [24].
Take “QTNPYARGPNPTAASLEASAGPFTVRSFTVSRPSGYGAGTVYYPTNAGGTVGAIAIVPGYTARQSSIKWWGPRLASHGFVVITIDTNSTFDYPSSRSSQQMAALRQVASLNGDSSSPIYGKVDTARMGVMGHSMGGGASLRSAANNPSLKAAIPQAPWDSQTNFSSVTVPTLIFACENDSIAPVNSHALPIYDSMSRNAKQFLEINGGSHSCANSGNSNQALIGKKGVAWMKRFMDNDTRYSTFACENPNSTAVSDFRTANCS [DuraPETase]”: the MHET released amounted to 0 mM under setting [1]; 0 mM under setting [2]; 0 mM under setting [3]; 0.182 ± 0.01 mM under setting [4]; 0.099 ± 0.031 mM under setting [5]; 0.152 ± 0.11 mM under setting [6]. Further, the MHET released is, setting by setting: under setting [7], 0 mM; under setting [8], 0 mM; under setting [9], 0 mM; under setting [10], 0.00907 ± 0.0052 mM; under setting [11], 0.00981 ± 0.0052 mM; under setting [12], 0 mM. The MHET released is 0 mM under setting [13]; 0 mM under setting [14]; 0.0436 ± 0.008 mM under setting [15]; 0.21 ± 0.0064 mM under setting [16]; 0.169 ± 0.011 mM under setting [17]; 0.123 ± 0.027 mM under setting [18]. Also, the MHET released by setting is: under setting [19], 0 mM; under setting [20], 0 mM; under setting [21], 0.0107 ± 0.0024 mM; under setting [22], 0.0884 ± 0.021 mM; under setting [23], 0.0546 ± 0.011 mM; under setting [24], 0 mM.
In the case of “SNPYQRGPNPTRSALTADGPFSVATYTVSRLSVSGFGGGVIYYPTGTSLTFGGIAMSPGYTADASSLAWLGRRLASHGFVVLVINTNSRFDGPDSRASQLSAALNYLRTSDPSAVRARLDANRLAVAGHSMGGGATLRIAEQNPSLKAAIPLTPWHTQKTFNTSVPVLIVGAEADTVAPVSQHAIPFYQNLPSTTPKVYVELCNASHIAPNSNNAAISVYTISWMKLWVDNDTRYRQFLCNVNDPALCDFRTNNRHCQ [LCC-ICCG DAQI]”, the MHET released by setting is: under setting [1], 0.0359 ± 0.0049 mM; under setting [2], 0.267 ± 0.041 mM; under setting [3], 0.562 ± 0.17 mM; under setting [4], 3.69 ± 0.81 mM; under setting [5], 0.3306 ± 0.0017 mM; under setting [6], 2.09 ± 0.09 mM. Besides, the MHET released under setting [7] was found to be 0 mM; the MHET released under setting [8] stood at 0.189 ± 0.0027 mM; the MHET released under setting [9] came to 0.371 ± 0.049 mM; the MHET released under setting [10] was found to be 4.52 ± 0.83 mM; the MHET released under setting [11] amounted to 0.211 ± 0.049 mM; the MHET released under setting [12] came to 1.54 ± 0.49 mM. In addition, the MHET released by setting is: under setting [13], 0.033 ± 0.007 mM; under setting [14], 0.189 ± 0.01 mM; under setting [15], 0.254 ± 0.0038 mM; under setting [16], 0.437 ± 0.021 mM; under setting [17], 0.197 ± 0.0089 mM; under setting [18], 0.155 ± 0.028 mM. The MHET released is, setting by setting: under setting [19], 0 mM; under setting [20], 0.0777 ± 0.0059 mM; under setting [21], 0.167 ± 0.018 mM; under setting [22], 0.424 ± 0.026 mM; under setting [23], 0.164 ± 0.0033 mM; under setting [24], 0.0936 ± 0.0087 mM.
“SNPYQRGPNPTRSALTATGPFSVATYTVSRLLVSGFGGGVIYYPTGTSLTFGGIAMSPGYTADASSLAWLGRRLASHGFVVLVINTNSRFDGPDSRARQLSAALNYLRTSSPSAVRARLDANRLAVAGHSMGGGGTLRIAEQNPSLKAAVPLTPWHPDKTFNTSVPVLIVGAQADTVAPVSQHAIPFYQNLPSTTPKVYVELCNASHIAPNSPNAAISVYTISWMKLWVDNDTRYRQFLCNVNDPALCDFRTNNRHCQ [LCC-ICCG I6M]”: the MHET released runs as follows: under setting [1], 0.067 ± 0.012 mM; under setting [2], 0.339 ± 0.17 mM; under setting [3], 0.534 ± 0.071 mM; under setting [4], 3.6 ± 0.34 mM; under setting [5], 0.333 ± 0.012 mM; under setting [6], 1.14 ± 0.016 mM. The MHET released is, setting by setting: under setting [7], 0 mM; under setting [8], 0.236 ± 0.035 mM; under setting [9], 0.211 ± 0.069 mM; under setting [10], 1.51 ± 0.21 mM; under setting [11], 0.164 ± 0.017 mM; under setting [12], 0.409 ± 0.12 mM. In addition, the MHET released under setting [13] came to 0.0591 ± 0.0083 mM; the MHET released under setting [14] is 0.178 ± 0.031 mM; the MHET released under setting [15] was determined as 0.22 ± 0.0074 mM; the MHET released under setting [16] is 0.206 ± 0.024 mM; the MHET released under setting [17] was determined as 0.113 ± 0.017 mM; the MHET released under setting [18] was 0.0594 ± 0.032 mM. The MHET released is, setting by setting: under setting [19], 0 mM; under setting [20], 0.0931 ± 0.0077 mM; under setting [21], 0.136 ± 0.0089 mM; under setting [22], 0.275 ± 0.064 mM; under setting [23], 0.13 ± 0.066 mM; under setting [24], 0.0223 ± 0.0028 mM.
